Experimental data: PMC4454452 (The Biochemical journal, 2014)

Target: CHD4 PHD2 finger (15N-labelled, GST tag cleaved) (uniformly 15N-labelled)
Assay: NMR titration

Kd: 18 µM
B1: unmodified histone H3 peptide (amino acids 1-12 of histone H3), NMR experiments (peptide)
peptide: ARTKQTARKSTG
